The source of these data is US20080286277A1 (GLYCART BIOTECHNOLOGY, published 2008).

First the molecules themselves.
B1: humanized ICR62 antibody I-HHD/I-KC7 (antibody, human IgG1, V domains shown)
VH: QVQLVQSGAEVKKPGSSVKVSCKASGFTFTDYKIHWVRQAPGQGLEWMGYFNPNSGYSTYAQKFQGRVTITADKSTSTAYMELSSLRSEDTAVYYCARLSPGGYYVMDAWGQGTTVTVSS
VL: DIQMTQSPSSLSASVGDRVTITCRASQGINNYLNWYQQKPGKAPKRLIYNTNSLQTGVPSRFSGSGSGTEFTLTISSLQPEDFATYYCLQHNSFPTFGQGTKLEIKR
B2: humanized ICR62 antibody I-HHD/I-KC2 (antibody, human IgG1, V domains shown)
VH: QVQLVQSGAEVKKPGSSVKVSCKASGFTFTDYKIHWVRQAPGQGLEWMGYFNPNSGYSTYAQKFQGRVTITADKSTSTAYMELSSLRSEDTAVYYCARLSPGGYYVMDAWGQGTTVTVSS
VL: DIQMTQSPSSLSASVGDRVTITCRASQGINNWLNWYQQKPGKAPKRLIYNTNNLQTGVPSRFSGSGSGTEFTLTISSLQPEDFATYYCLQHNSFPTFGQGTKLEIKR
B3: humanized ICR62 antibody I-HHD/I-KC5 (antibody, human IgG1, V domains shown)
VH: QVQLVQSGAEVKKPGSSVKVSCKASGFTFTDYKIHWVRQAPGQGLEWMGYFNPNSGYSTYAQKFQGRVTITADKSTSTAYMELSSLRSEDTAVYYCARLSPGGYYVMDAWGQGTTVTVSS
VL: DIQMTQSPSSLSASVGDRVTITCRASQGINNYLNWYQQKPGKAPKRLIYNANNLQTGVPSRFSGSGSGTEFTLTISSLQPEDFATYYCLQHNSFPTFGQGTKLEIKR
B4: humanized ICR62 antibody I-HHD/I-KC9 (antibody, human IgG1, V domains shown)
VH: QVQLVQSGAEVKKPGSSVKVSCKASGFTFTDYKIHWVRQAPGQGLEWMGYFNPNSGYSTYAQKFQGRVTITADKSTSTAYMELSSLRSEDTAVYYCARLSPGGYYVMDAWGQGTTVTVSS
VL: DIQMTQSPSSLSASVGDRVTITCRASQGINNYLNWYQQKPGKAPKRLIYNTNNLQTGVPSRFSGSGSGTEFTLTISSLQPEDFATYYCLQHNSYPTFGQGTKLEIKR
B5: humanized ICR62 antibody I-HHD/I-KC6 (antibody, human IgG1, V domains shown)
VH: QVQLVQSGAEVKKPGSSVKVSCKASGFTFTDYKIHWVRQAPGQGLEWMGYFNPNSGYSTYAQKFQGRVTITADKSTSTAYMELSSLRSEDTAVYYCARLSPGGYYVMDAWGQGTTVTVSS
VL: DIQMTQSPSSLSASVGDRVTITCRASQGINNYLNWYQQKPGKAPKRLIYNTSNLQTGVPSRFSGSGSGTEFTLTISSLQPEDFATYYCLQHNSFPTFGQGTKLEIKR
B6: humanized ICR62 antibody I-HHD/I-KC4 (antibody, human IgG1, V domains shown)
VH: QVQLVQSGAEVKKPGSSVKVSCKASGFTFTDYKIHWVRQAPGQGLEWMGYFNPNSGYSTYAQKFQGRVTITADKSTSTAYMELSSLRSEDTAVYYCARLSPGGYYVMDAWGQGTTVTVSS
VL: DIQMTQSPSSLSASVGDRVTITCRASQGINNYLNWYQQKPGKAPKRLIYTTNNLQTGVPSRFSGSGSGTEFTLTISSLQPEDFATYYCLQHNSFPTFGQGTKLEIKR
B7: humanized ICR62 antibody I-HHD/I-KC8 (antibody, human IgG1, V domains shown)
VH: QVQLVQSGAEVKKPGSSVKVSCKASGFTFTDYKIHWVRQAPGQGLEWMGYFNPNSGYSTYAQKFQGRVTITADKSTSTAYMELSSLRSEDTAVYYCARLSPGGYYVMDAWGQGTTVTVSS
VL: DIQMTQSPSSLSASVGDRVTITCRASQGINNYLNWYQQKPGKAPKRLIYNTNNLQSGVPSRFSGSGSGTEFTLTISSLQPEDFATYYCLQHNSFPTFGQGTKLEIKR
B8: humanized ICR62 antibody I-HHD-1/I-KC (antibody, human IgG1, V domains shown)
VH: QVQLVQSGAEVKKPGSSVKVSCKASGGTFTDYKIHWVRQAPGQGLEWMGYFNPNSGYSTYAQKFQGRVTITADKSTSTAYMELSSLRSEDTAVYYCARLSPGGYYVMDAWGQGTTVTVSS
VL: DIQMTQSPSSLSASVGDRVTITCRASQGINNYLNWYQQKPGKAPKRLIYNTNNLQTGVPSRFSGSGSGTEFTLTISSLQPEDFATYYCLQHNSFPTFGQGTKLEIKR
B9: humanized ICR62 antibody I-HHD-9/I-KC (antibody, human IgG1, V domains shown)
VH: QVQLVQSGAEVKKPGSSVKVSCKASGFTFTDYKIHWVRQAPGQGLEWMGYFNPNSGYATYAQKFQGRVTITADKSTSTAYMELSSLRSEDTAVYYCARLSPGGYYVMDAWGQGTTVTVSS
VL: DIQMTQSPSSLSASVGDRVTITCRASQGINNYLNWYQQKPGKAPKRLIYNTNNLQTGVPSRFSGSGSGTEFTLTISSLQPEDFATYYCLQHNSFPTFGQGTKLEIKR
B10: humanized ICR62 antibody I-HHD-11/I-KC (antibody, human IgG1, V domains shown)
VH: QVQLVQSGAEVKKPGSSVKVSCKASGFTFTDYKIHWVRQAPGQGLEWMGYFNPNSGYSTYAQKFQGRVTITADKSTSTAYMELSSLRSEDTAVYYCARLSPGGYYVMDVWGQGTTVTVSS
VL: DIQMTQSPSSLSASVGDRVTITCRASQGINNYLNWYQQKPGKAPKRLIYNTNNLQTGVPSRFSGSGSGTEFTLTISSLQPEDFATYYCLQHNSFPTFGQGTKLEIKR
B11: humanized ICR62 antibody I-HHD-2/I-KC (antibody, human IgG1, V domains shown)
VH: QVQLVQSGAEVKKPGSSVKVSCKASGFSFTDYKIHWVRQAPGQGLEWMGYFNPNSGYSTYAQKFQGRVTITADKSTSTAYMELSSLRSEDTAVYYCARLSPGGYYVMDAWGQGTTVTVSS
VL: DIQMTQSPSSLSASVGDRVTITCRASQGINNYLNWYQQKPGKAPKRLIYNTNNLQTGVPSRFSGSGSGTEFTLTISSLQPEDFATYYCLQHNSFPTFGQGTKLEIKR
B12: humanized ICR62 antibody I-HHD-7/I-KC (antibody, human IgG1, V domains shown)
VH: QVQLVQSGAEVKKPGSSVKVSCKASGFTFTDYKIHWVRQAPGQGLEWMGYFNPISGYSTYAQKFQGRVTITADKSTSTAYMELSSLRSEDTAVYYCARLSPGGYYVMDAWGQGTTVTVSS
VL: DIQMTQSPSSLSASVGDRVTITCRASQGINNYLNWYQQKPGKAPKRLIYNTNNLQTGVPSRFSGSGSGTEFTLTISSLQPEDFATYYCLQHNSFPTFGQGTKLEIKR
B13: humanized ICR62 antibody I-HHD-4/I-KC (antibody, human IgG1, V domains shown)
VH: QVQLVQSGAEVKKPGSSVKVSCKASGFTFTEYKIHWVRQAPGQGLEWMGYFNPNSGYSTYAQKFQGRVTITADKSTSTAYMELSSLRSEDTAVYYCARLSPGGYYVMDAWGQGTTVTVSS
VL: DIQMTQSPSSLSASVGDRVTITCRASQGINNYLNWYQQKPGKAPKRLIYNTNNLQTGVPSRFSGSGSGTEFTLTISSLQPEDFATYYCLQHNSFPTFGQGTKLEIKR
B14: humanized ICR62 antibody I-HHD-6/I-KC (antibody, human IgG1, V domains shown)
VH: QVQLVQSGAEVKKPGSSVKVSCKASGFTFTDYKIHWVRQAPGQGLEWMGYFNANSGYSTYAQKFQGRVTITADKSTSTAYMELSSLRSEDTAVYYCARLSPGGYYVMDAWGQGTTVTVSS
VL: DIQMTQSPSSLSASVGDRVTITCRASQGINNYLNWYQQKPGKAPKRLIYNTNNLQTGVPSRFSGSGSGTEFTLTISSLQPEDFATYYCLQHNSFPTFGQGTKLEIKR

The first assay addresses T1, human epidermal growth factor receptor (EGFR) (human, UniProt P00533 25-1210).
T1 construct: whole, on cells; also called HER-1; ErbB1
Briefly: flow cytometry on A431 cells, light chain paired with I-HHD.
As to B1, the binding result is “binds”.

Take B2: the binding result was “binds”.

As to B3, the binding result is reported as “binds”.

With B4, the binding result is “binds”.

In the case of B5, the binding result is “binds”.

For the molecule B6, the binding result is listed as “binds”.

For B7, the binding result was “binds”.

In the next assay the target is T1, human epidermal growth factor receptor …. Briefly: flow cytometry on A431 cells, heavy chain paired with I-KC.
For B8, the binding result is “binds”.

For the molecule B9, the binding result is “binds”.

For B10, the binding result is given as “binds”.

As for B11, the binding result is on record as “binds”.

For the molecule B12, the binding result is given as “binds”.

For B13, the binding result was “binds”.

Regarding B14, the binding result was “binds”.
